The test system of data set [1] is insulin-induced hypoglycemia rat model. The data set is described as follows: Efficacy in insulin-induced hypoglycemic rat model. The data set is classed as in vivo, SD rats. The note with it: insulin 0.65 IU/kg subcutaneous at T0, phosphate buffer at 45 min (model control).
For the next data set, the system named is human kidney microsomes. The data set is described as follows: Stability in human kidney microsome incubation system.
A further data set in a line: in vitro. The note with it: human, human kidney microsomes.
Data set [2] has as its target human glucagon receptor (GCGR) (human, UniProt P47871 26-477). The data set is described as follows: cell-based or functional assay.
For data set [3], the target named is T1, human glucose-dependent insulinotropic polypeptide receptor (GIPR) (human, UniProt P48546 22-466).
T1 sequence (looked up): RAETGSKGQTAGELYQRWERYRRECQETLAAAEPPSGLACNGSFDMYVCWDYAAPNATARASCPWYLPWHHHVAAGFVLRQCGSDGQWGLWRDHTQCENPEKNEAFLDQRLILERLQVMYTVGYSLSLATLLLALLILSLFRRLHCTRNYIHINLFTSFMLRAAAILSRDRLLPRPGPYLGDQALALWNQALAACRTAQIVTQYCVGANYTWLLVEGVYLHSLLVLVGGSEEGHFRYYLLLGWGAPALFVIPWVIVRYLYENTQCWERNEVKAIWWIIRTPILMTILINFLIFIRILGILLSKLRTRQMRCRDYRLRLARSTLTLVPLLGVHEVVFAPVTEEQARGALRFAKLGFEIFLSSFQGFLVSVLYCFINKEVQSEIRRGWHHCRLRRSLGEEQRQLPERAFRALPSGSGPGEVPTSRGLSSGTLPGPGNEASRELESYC
The data set is described as follows: cell-based or functional assay.

The target of data set [4] is human glucagon-like peptide-1 receptor (GLP-1R) (human, UniProt P43220 24-463). The data set can be described thus: cell-based or functional assay.

Structures can show the parent of a compound that is named as a salt. [ ]: non-standard residue; d: D form. Aib = CC(C)(N)C(=O)O Some results are limits rather than exact numbers.

By half-life is commonly meant the time needed for the level to fall by half in the phase considered. The low end stands for fast loss, the high end for slow loss. The term amount remaining denotes the share of the starting amount still present when the sample was taken.

Chain of human glucagon receptor (GCGR) (P47871 26-477): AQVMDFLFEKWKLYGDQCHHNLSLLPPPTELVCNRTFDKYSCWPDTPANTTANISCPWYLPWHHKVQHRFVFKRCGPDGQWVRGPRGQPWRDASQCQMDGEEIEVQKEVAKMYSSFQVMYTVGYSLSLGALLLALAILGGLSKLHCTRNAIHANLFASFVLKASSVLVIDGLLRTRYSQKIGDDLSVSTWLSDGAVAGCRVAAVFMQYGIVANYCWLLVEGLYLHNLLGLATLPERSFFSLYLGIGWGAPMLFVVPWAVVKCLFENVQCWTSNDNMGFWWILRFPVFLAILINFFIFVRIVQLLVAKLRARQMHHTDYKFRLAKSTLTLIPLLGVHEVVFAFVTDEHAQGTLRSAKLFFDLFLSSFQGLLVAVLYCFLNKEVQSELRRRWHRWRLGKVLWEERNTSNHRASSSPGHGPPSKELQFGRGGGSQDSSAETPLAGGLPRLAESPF

Consider “Insulin: insulin, 0.65 IU/kg subcutaneous, used to induce hypoglycemia in the modeling groups [reference compound]”, for which, in data set [1], the “Blood glucose 60 min” value is 3.47 mmol/L, the “Blood glucose 75 min” value came to 4.15 mmol/L, the “Blood glucose 90 min” value is reported as 4.85 mmol/L and the “Blood glucose 105 min” value is 5.42 mmol/L.

Regarding `CN(C)CCCOc1nn(Cc2ccccc2)c2ccccc12` [Benzydamine hydrochloride, benzydamine hydrochloride], in the data set on human kidney microsomes (With NADPH), the “Percentage residues 0 min” value is 100.0% and the “Percentage residues 120 min” value amounted to 28.12%. Moreover, in the data set with human kidney microsomes (Without NADPH), the “Percentage residues 0 min” value turned out to be 100.0%, the “Percentage residues 15 min” value came out at 85.59%, the “Percentage residues 30 min” value amounted to 86.82% and the “Percentage residues 60 min” value came out at 90.39%. Also, the “Percentage residues 120 min” value in the data set on human kidney microsomes (Without NADPH) is 90.95%. In the data set “in vitro”, this molecule displayed a half-life at 1 μM of 1.1 h; an amount remaining at 0.25 h, 1 μM of 83.1%; a fraction remaining at 0.5 h, 1 μM of 70.8%; an amount remaining at 1 h, 1 μM of 54.2%.

B1: Glucagon analog compound 41 (peptide)
peptide: H-HSQGTFTSDYSKYLDV[Aib]RAQEFVQWLEST-OH
SMILES: CC(C)C[C@H](NC(=O)[C@H](Cc1c[nH]c2ccccc12)NC(=O)[C@H](CCC(N)=O)NC(=O)[C@@H](NC(=O)[C@H](Cc1ccccc1)NC(=O)[C@H](CCC(=O)O)NC(=O)[C@H](CCC(N)=O)NC(=O)[C@H](C)NC(=O)[C@H](CCCNC(=N)N)NC(=O)C(C)(C)NC(=O)[C@@H](NC(=O)[C@H](CC(=O)O)NC(=O)[C@H](CC(C)C)NC(=O)[C@H](Cc1ccc(O)cc1)NC(=O)[C@H](CCCCN)NC(=O)[C@H](CO)NC(=O)[C@H](Cc1ccc(O)cc1)NC(=O)[C@H](CC(=O)O)NC(=O)[C@H](CO)NC(=O)[C@@H](NC(=O)[C@H](Cc1ccccc1)NC(=O)[C@@H](NC(=O)CNC(=O)[C@H](CCC(N)=O)NC(=O)[C@H](CO)NC(=O)[C@@H](N)Cc1c[nH]cn1)[C@@H](C)O)[C@@H](C)O)C(C)C)C(C)C)C(=O)N[C@@H](CCC(=O)O)C(=O)N[C@@H](CO)C(=O)N[C@H](C(=O)O)[C@@H](C)O
B1: in data set [2], the “Human GCGR receptor EC50 (nM), cAMP HTRF in CHO-K1/GCGR/CRE-Luc cells” value was 0.058 nM and the “Relative activity (%) (normalized by the activity of the native glucagon), cAMP HTRF” value was 333%. Moreover, in data set [3], the “GIPR % Activity relative to native GIP, cAMP HTRF” value was < 0.07% and the “GIPR EC50 (nM), cAMP HTRF in CHO-K1/GIPR cells” value (“GIPR EC50 (nM), cAMP HTRF” for short) is > 100 nM. Also, in data set [4], the “GLP-1R % Activity relative to native GLP-1, cAMP HTRF” value was 0.231% and the “GLP-1R EC50 (nM), cAMP HTRF in CHO-GLP-1R cells” value (from here on “GLP-1R EC50 (nM), cAMP HTRF”) came out at 116 nM.

B2: Glucagon analog compound 42 (peptide)
peptide: H-HSQGTFTSDYSKYLDI[Aib]RAQEFVQWLEST-OH
SMILES: CC[C@H](C)[C@H](NC(=O)[C@H](CC(=O)O)NC(=O)[C@H](CC(C)C)NC(=O)[C@H](Cc1ccc(O)cc1)NC(=O)[C@H](CCCCN)NC(=O)[C@H](CO)NC(=O)[C@H](Cc1ccc(O)cc1)NC(=O)[C@H](CC(=O)O)NC(=O)[C@H](CO)NC(=O)[C@@H](NC(=O)[C@H](Cc1ccccc1)NC(=O)[C@@H](NC(=O)CNC(=O)[C@H](CCC(N)=O)NC(=O)[C@H](CO)NC(=O)[C@@H](N)Cc1c[nH]cn1)[C@@H](C)O)[C@@H](C)O)C(=O)NC(C)(C)C(=O)N[C@@H](CCCNC(=N)N)C(=O)N[C@@H](C)C(=O)N[C@@H](CCC(N)=O)C(=O)N[C@@H](CCC(=O)O)C(=O)N[C@@H](Cc1ccccc1)C(=O)N[C@H](C(=O)N[C@@H](CCC(N)=O)C(=O)N[C@@H](Cc1c[nH]c2ccccc12)C(=O)N[C@@H](CC(C)C)C(=O)N[C@@H](CCC(=O)O)C(=O)N[C@@H](CO)C(=O)N[C@H](C(=O)O)[C@@H](C)O)C(C)C
For the molecule B2, in data set [2], the “Human GCGR receptor EC50 (nM), cAMP HTRF in CHO-K1/GCGR/CRE-Luc cells” value is 0.093 nM and the “Relative activity (%) (normalized by the activity of the native glucagon), cAMP HTRF” value amounted to 207%. Moreover, in data set [3], the “GIPR % Activity relative to native GIP, cAMP HTRF” value is < 0.07% and the “GIPR EC50 (nM), cAMP HTRF” value was > 100 nM. In data set [4], the “GLP-1R % Activity relative to native GLP-1, cAMP HTRF” value turned out to be 0.291% and the “GLP-1R EC50 (nM), cAMP HTRF” value turned out to be 92.1 nM.

B3: Glucagon analog compound 40 (peptide)
peptide: H-HSQGTFTSDYSKYLDL[Aib]RAQEFVQWLEST-OH
SMILES: CC(C)C[C@H](NC(=O)[C@H](Cc1ccc(O)cc1)NC(=O)[C@H](CCCCN)NC(=O)[C@H](CO)NC(=O)[C@H](Cc1ccc(O)cc1)NC(=O)[C@H](CC(=O)O)NC(=O)[C@H](CO)NC(=O)[C@@H](NC(=O)[C@H](Cc1ccccc1)NC(=O)[C@@H](NC(=O)CNC(=O)[C@H](CCC(N)=O)NC(=O)[C@H](CO)NC(=O)[C@@H](N)Cc1c[nH]cn1)[C@@H](C)O)[C@@H](C)O)C(=O)N[C@@H](CC(=O)O)C(=O)N[C@@H](CC(C)C)C(=O)NC(C)(C)C(=O)N[C@@H](CCCNC(=N)N)C(=O)N[C@@H](C)C(=O)N[C@@H](CCC(N)=O)C(=O)N[C@@H](CCC(=O)O)C(=O)N[C@@H](Cc1ccccc1)C(=O)N[C@H](C(=O)N[C@@H](CCC(N)=O)C(=O)N[C@@H](Cc1c[nH]c2ccccc12)C(=O)N[C@@H](CC(C)C)C(=O)N[C@@H](CCC(=O)O)C(=O)N[C@@H](CO)C(=O)N[C@H](C(=O)O)[C@@H](C)O)C(C)C
For the molecule B3, in data set [2], the “Human GCGR receptor EC50 (nM), cAMP HTRF in CHO-K1/GCGR/CRE-Luc cells” value was 0.06 nM and the “Relative activity (%) (normalized by the activity of the native glucagon), cAMP HTRF” value amounted to 318%. Further, in data set [3], the “GIPR % Activity relative to native GIP, cAMP HTRF” value was < 0.07% and the “GIPR EC50 (nM), cAMP HTRF” value was > 100 nM. Further, in data set [4], the “GLP-1R % Activity relative to native GLP-1, cAMP HTRF” value worked out at 0.192% and the “GLP-1R EC50 (nM), cAMP HTRF” value came out at 140 nM.

B4: Glucagon analog compound 39 (peptide)
peptide: H-HSQGTFTSDYSKYLDT[Aib]RAQEFVQWLEST-OH
SMILES: CC(C)C[C@H](NC(=O)[C@H](Cc1c[nH]c2ccccc12)NC(=O)[C@H](CCC(N)=O)NC(=O)[C@@H](NC(=O)[C@H](Cc1ccccc1)NC(=O)[C@H](CCC(=O)O)NC(=O)[C@H](CCC(N)=O)NC(=O)[C@H](C)NC(=O)[C@H](CCCNC(=N)N)NC(=O)C(C)(C)NC(=O)[C@@H](NC(=O)[C@H](CC(=O)O)NC(=O)[C@H](CC(C)C)NC(=O)[C@H](Cc1ccc(O)cc1)NC(=O)[C@H](CCCCN)NC(=O)[C@H](CO)NC(=O)[C@H](Cc1ccc(O)cc1)NC(=O)[C@H](CC(=O)O)NC(=O)[C@H](CO)NC(=O)[C@@H](NC(=O)[C@H](Cc1ccccc1)NC(=O)[C@@H](NC(=O)CNC(=O)[C@H](CCC(N)=O)NC(=O)[C@H](CO)NC(=O)[C@@H](N)Cc1c[nH]cn1)[C@@H](C)O)[C@@H](C)O)[C@@H](C)O)C(C)C)C(=O)N[C@@H](CCC(=O)O)C(=O)N[C@@H](CO)C(=O)N[C@H](C(=O)O)[C@@H](C)O
On to B4, for which, in data set [2], the “Human GCGR receptor EC50 (nM), cAMP HTRF in CHO-K1/GCGR/CRE-Luc cells” value turned out to be 0.072 nM and the “Relative activity (%) (normalized by the activity of the native glucagon), cAMP HTRF” value is 268%. Also, in data set [3], the “GIPR % Activity relative to native GIP, cAMP HTRF” value is < 0.07% and the “GIPR EC50 (nM), cAMP HTRF” value is > 100 nM. In data set [4], the “GLP-1R % Activity relative to native GLP-1, cAMP HTRF” value came out at 0.212% and the “GLP-1R EC50 (nM), cAMP HTRF” value was found to be 127 nM.

B5: Glucagon analog compound 43 (peptide)
peptide: H-HSHGTFTSDYSKYLDL[Aib]RAQEFVQWLEST-OH
SMILES: CC(C)C[C@H](NC(=O)[C@H](Cc1ccc(O)cc1)NC(=O)[C@H](CCCCN)NC(=O)[C@H](CO)NC(=O)[C@H](Cc1ccc(O)cc1)NC(=O)[C@H](CC(=O)O)NC(=O)[C@H](CO)NC(=O)[C@@H](NC(=O)[C@H](Cc1ccccc1)NC(=O)[C@@H](NC(=O)CNC(=O)[C@H](Cc1c[nH]cn1)NC(=O)[C@H](CO)NC(=O)[C@@H](N)Cc1c[nH]cn1)[C@@H](C)O)[C@@H](C)O)C(=O)N[C@@H](CC(=O)O)C(=O)N[C@@H](CC(C)C)C(=O)NC(C)(C)C(=O)N[C@@H](CCCNC(=N)N)C(=O)N[C@@H](C)C(=O)N[C@@H](CCC(N)=O)C(=O)N[C@@H](CCC(=O)O)C(=O)N[C@@H](Cc1ccccc1)C(=O)N[C@H](C(=O)N[C@@H](CCC(N)=O)C(=O)N[C@@H](Cc1c[nH]c2ccccc12)C(=O)N[C@@H](CC(C)C)C(=O)N[C@@H](CCC(=O)O)C(=O)N[C@@H](CO)C(=O)N[C@H](C(=O)O)[C@@H](C)O)C(C)C
With B5, in data set [2], the “Human GCGR receptor EC50 (nM), cAMP HTRF in CHO-K1/GCGR/CRE-Luc cells” value was 0.052 nM and the “Relative activity (%) (normalized by the activity of the native glucagon), cAMP HTRF” value stood at 371%.

B6: Glucagon analog compound 47 (peptide)
peptide: H-HSHGTFTSDYSKYLDL[Aib]RAQEFVEWLEST-OH
SMILES: CC(C)C[C@H](NC(=O)[C@H](Cc1ccc(O)cc1)NC(=O)[C@H](CCCCN)NC(=O)[C@H](CO)NC(=O)[C@H](Cc1ccc(O)cc1)NC(=O)[C@H](CC(=O)O)NC(=O)[C@H](CO)NC(=O)[C@@H](NC(=O)[C@H](Cc1ccccc1)NC(=O)[C@@H](NC(=O)CNC(=O)[C@H](Cc1c[nH]cn1)NC(=O)[C@H](CO)NC(=O)[C@@H](N)Cc1c[nH]cn1)[C@@H](C)O)[C@@H](C)O)C(=O)N[C@@H](CC(=O)O)C(=O)N[C@@H](CC(C)C)C(=O)NC(C)(C)C(=O)N[C@@H](CCCNC(=N)N)C(=O)N[C@@H](C)C(=O)N[C@@H](CCC(N)=O)C(=O)N[C@@H](CCC(=O)O)C(=O)N[C@@H](Cc1ccccc1)C(=O)N[C@H](C(=O)N[C@@H](CCC(=O)O)C(=O)N[C@@H](Cc1c[nH]c2ccccc12)C(=O)N[C@@H](CC(C)C)C(=O)N[C@@H](CCC(=O)O)C(=O)N[C@@H](CO)C(=O)N[C@H](C(=O)O)[C@@H](C)O)C(C)C
For the molecule B6, in data set [2], the “Human GCGR receptor EC50 (nM), cAMP HTRF in CHO-K1/GCGR/CRE-Luc cells” value came to 0.076 nM and the “Relative activity (%) (normalized by the activity of the native glucagon), cAMP HTRF” value is 253%.
